# Values joined by “and” are separate entries in the source; they are usually repeats but may differ in a detail not shown here. Equal values may be shown once.
# B1: tissue kallikrein: serine protease that cleaves kininogen into kallidin; polypeptide SEQ ID NO:1 (Sus scrofa kallikrein 1), KLK1 from Sigma (protein, listed as Sus scrofa)
# chain: MWSLVMRLALSLAGTGAAPPIQSRIIGGRECEKDSHPWQVAIYHYSSFQCGGVLVDPKWVLTAAHCKNDNYQVWLGRHNLFENEVTAQFFGVTADFPHPGFNLSLLKNHTKADGKDYSHDLMLLRLQSPAKITDAVKVLELPTQEPELGSTCQASGWGSIEPGPDDFEFPDEIQCVELTLLQNTFCADAHPDKVTESMLCAGYLPGGKDTCMGDSGGPLICNGMWQGITSWGHTPCGSANKPSIYTKLIFYLDWINDTITENP
# modifications: 125I label in one form
# Test: Pharmacokinetic study of intranasal tissue kallikrein (125I-KLK1 tissue concentrations by gamma counting)
# Format: in vivo
# Details: rat, 30 min. end point
# Procedure: The purpose of this study was to quantify the amount of tissue kallikrein (KLK1) reaching the central nervous system and peripheral tissues after intranasal administration to anesthetized rats. At 30 min after KLK1 administration, animals were transcardially perfused with ice-cold saline followed by paraformaldehyde fixative and tissues were dissected. The amount of radiolabeled KLK1 in each tissue sample was quantified by gamma counting and tissue concentrations were calculated using tissue weight and gamma counting of standards of the dosing solutions
# Adult male Sprague Dawley rats (n=10, mean 335.4 g±4.57 g SE) were used for this study. Animals were group housed in the Regions Hospital Animal Care Facility with free access to food and water. Animals were kept on a 12 h light cycle. All experimental procedures were approved by the Animal Care and Use Committee at Regions Hospital under IACUC protocol number 08-022.
# Tissue kallikrein was sent to Perkin-Elmer for ^125I-labelling (Quote NEX-084, lot C1541583). Non-labeled KLK1 from Sigma (cat#K3627-1KU, lot 018K1441) was also used. Non-labeled KLK1 was dissolved in 1×PBS (10×PBS, Sigma, cat #P5493, lot 027K8405 diluted in sterile water). The average dose was 48.1 μL, 75 μCi, and 2.6 mg.
# • a. Prior to anesthesia, each rat was weighed. • b. An anesthesia cocktail was prepared and full, half, and quarter anesthesia doses were calculated according to the animal's weight with a full dose containing 30 mg/kg ketamine, 6 mg/kg xylazine, and 1 mg/kg acepromazine. • c. A 1-cc syringe fitted with a 25 G or 27 G, ½ inch needle was assembled and a full dose was drawn into the syringe for injection. • d. Rats were restrained in a towel as follows. Rats were placed ventral side down in the middle of a hand towel. The towel was then wrapped around the head and shoulders to restrain. Wrapped animals remained ventral side down while the left hind leg was located. • e. The left hind leg was drawn to the side and the needle was inserted just beneath the skin (subcutaneous) above the thigh. After ensuring that the needle was placed subcutaneously (and not intramuscularly), full doses were injected. Rats were placed in holding cages and the injection time noted. Animals should be under within 5 min. • f. Anesthesia was monitored throughout the procedures by assessing reflexes using pinching of the hind paw or tail. If a reflex was present, a half or quarter dose booster was administered as necessary. • g. During drug administration, animals received a half dose booster roughly 20-25 min after initial dose. Intranasal Delivery of ^125I-KLK1 • a. Anesthetized rats were placed on their backs on a heating pad in a metal surgical tray. The heating pad was connected to a thermostat and was automatically regulated to maintain a 37° C. temperature based on continuous measurement from a rectal probe. • b. A 2″×2″ gauze pad was rolled tightly into a pillow, taped together, and under the neck to maintain a correct neck position horizontal with the counter. • c. A lead impregnated shield was placed between the surgical tray and the experimenter for protection against radiation. The dose solution, pipette, pipette tips, and waste receptacle were arranged behind the shield for easy access. • d. A 6 μL drop was loaded into the pipette behind the shield. • e. A cotton swab covered in parafilm was used to occlude one naris completely (the flat part of the swab was pushed gently against the naris to prevent airflow), while the 6 μL drop was expelled slowly from the pipette (held at a 45° angle from the rat's midline), forming a drop on the pipette tip. The drop was lowered onto the open naris to be inhaled. • f. After two minutes, the alternate naris was occluded and a 6 μL drop was administered in the same fashion. • g. A drop was administered as described above every two minutes to alternating nares until a total of 8 drops was delivered (4 to each naris) over 14 min. • h. […]
# [1] = individual animal, listed as kallikrien
molecule,measurement,setting,value
B1,concentration in Ventral Dura,"Avg, outliers removed",143.0 nM
same,concentration in Amygdala,[1],13.5 nM and 10.9 nM and 14.16 nM and 18.3 nM and 12.1 nM and 25.4 nM and 15.2 nM and 13.9 nM and 24.6 nM and 13.7 nM
same,concentration in Anterior Olfactory Nucleus,[1],23.1 nM and 15.1 nM and 24.0 nM and 20.5 nM and 19.3 nM and 44.8 nM and 29.2 nM and 25.2 nM and 45.6 nM and 21.2 nM
same,concentration in Anterior Trigeminal Nerve,[1],233.5 nM and 75.1 nM and 83.9 nM and 83.5 nM and 108.3 nM and 68.8 nM and 111.7 nM and 139.2 nM and 77.5 nM
same,concentration in Axillary Nodes (2),[1],44.6 nM and 38.9 nM and 58.8 nM and 44.4 nM and 43.9 nM and 48.8 nM and 28.6 nM and 33.5 nM and 47.7 nM and 34.0 nM
same,concentration in Blood Sample,[1],292.4 nM and 272.4 nM and 327.7 nM and 288.9 nM and 275.6 nM and 231.1 nM and 233.0 nM and 251.9 nM and 242.4 nM and 268.4 nM
same,concentration in Carotid Artery,[1],127.5 nM and 55.9 nM and 111.2 nM and 103.2 nM and 138.7 nM and 175.1 nM and 84.9 nM and 115.6 nM and 108.2 nM
same,concentration in Cerebellum,[1],9.3 nM and 10.6 nM and 10.06 nM and 13.2 nM and 11.2 nM and 12.2 nM and 8.6 nM and 14.7 nM and 7.8 nM
same,concentration in Cervical Nodes (2),[1],214.4 nM and 3.1 nM and 116.3 nM and 72.1 nM and 100.5 nM and 119.9 nM and 103.7 nM and 196.0 nM and 174.6 nM
same,concentration in Circle of Willis & Basilar Artery,[1],190.7 nM and 56.9 nM and 44.4 nM and 133.6 nM and 87.4 nM and 178.2 nM and 115.5 nM and 44.1 nM and 134.1 nM and 48.3 nM
same,concentration in Dorsal Dura,[1],116.0 nM and 92.5 nM and 118.2 nM and 156.9 nM and 116.8 nM and 131.0 nM and 132.9 nM and 242.5 nM and 89.5 nM
same,concentration in Esophagus,[1],118.0 nM and 66.9 nM and 109.6 nM and 87.7 nM and 68.1 nM and 40.9 nM and 65.1 nM and 85.4 nM and 128.1 nM and 82.4 nM
same,concentration in Extra Cortex,[1],10.3 nM and 11.3 nM and 12.40 nM and 13.3 nM and 13.8 nM and 17.2 nM and 12.8 nM and 16.6 nM and 9.8 nM
same,concentration in Extra Slice #1,[1],17.1 nM and 16.2 nM and 19.4 nM and 16.6 nM and 16.9 nM and 43.2 nM and 31.1 nM and 29.6 nM and 22.7 nM
same,concentration in Extra Slice #2,[1],9.2 nM and 11.0 nM and 12.33 nM and 17.0 nM and 11.7 nM and 28.5 nM and 17.6 nM and 17.3 nM and 27.0 nM and 15.6 nM
same,concentration in Extra Slice #3,[1],8.8 nM and 9.6 nM and 11.43 nM and 10.7 nM and 9.9 nM and 23.3 nM and 17.2 nM and 13.6 nM and 21.0 nM and 13.8 nM
same,concentration in Extra Slice #4,[1],7.5 nM and 8.6 nM and 9.4 nM and 9.9 nM and 18.4 nM and 14.7 nM and 10.5 nM and 17.0 nM and 11.8 nM
same,concentration in Extra Slice #5,[1],7.7 nM and 7.6 nM and 10.7 nM and 9.2 nM and 10.8 nM and 19.2 nM and 18.6 nM and 9.7 nM and 14.8 nM and 9.9 nM
same,concentration in Extra Slice #6,[1],7.9 nM and 8.1 nM and 12.1 nM and 10.5 nM and 12.2 nM and 16.7 nM and 10.4 nM and 14.8 nM and 9.5 nM
same,concentration in Frontal Cortex,[1],12.0 nM and 16.1 nM and 15.8 nM and 16.9 nM and 17.4 nM and 45.7 nM and 27.7 nM and 26.8 nM and 38.9 nM and 22.0 nM
same,concentration in Heart,[1],17.4 nM and 16.0 nM and 21.9 nM and 30.1 nM and 12.7 nM and 31.4 nM and 13.7 nM and 23.2 nM and 22.8 nM and 37.0 nM
same,concentration in Hippocampus,[1],7.0 nM (2×) and 11.6 nM and 10.6 nM and 8.8 nM and 16.4 nM and 13.4 nM and 13.7 nM and 8.2 nM
same,concentration in Hypothalamus,[1],17.1 nM and 11.9 nM and 21.1 nM and 15.8 nM and 17.4 nM and 37.6 nM and 28.8 nM and 15.7 nM and 38.9 nM and 17.3 nM
same,"concentration in Kidney (L, tip)",[1],179.0 nM and 213.3 nM and 187.5 nM and 115.0 nM and 24.6 nM and 35.5 nM and 103.9 nM and 240.4 nM and 212.2 nM and 36.9 nM
same,"concentration in Liver (R, superficial lobe)",[1],18.7 nM and 37.1 nM and 25.7 nM and 26.6 nM and 40.2 nM and 26.1 nM and 16.4 nM and 16.1 nM and 21.8 nM and 28.8 nM
same,concentration in Lower Cervical Spinal Cord,[1],5.3 nM and 6.6 nM and 7.3 nM (2×) and 5.2 nM and 4.7 nM and 7.0 nM and 6.5 nM and 10.1 nM and 10.9 nM
same,concentration in Lumbar Spinal Cord,[1],5.1 nM and 4.9 nM and 5.8 nM and 4.7 nM and 5.0 nM and 5.35 nM and 4.2 nM (2×) and 5.6 nM and 4.6 nM

# From patent US8501695B2, “Tissue kallikrein for the treatment of diseases associated with amyloid protein” (DiaMedica, Inc., priority 2007, dated 2013)
